± gives the uncertainty stated by the source.
Test: protein stability index of a GFP-peptide fusion (yeast GPS) (PSI 1-4); higher = more stable; sorted into four equal gates, so the index is relative within each strain
How it was run: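 Mid-log yeast cultures in leucine-free medium, carrying a pooled plasmid library, were sorted into four equal gates by their GFP/Cherry fluorescence ratio. Each plasmid expressed Cherry along with GFP fused upstream of a tiled 17-residue yeast protein peptide. Plasmids recovered from each gate were PCR-amplified and Illumina-sequenced, with reads assigned to strains by barcodes. The protein stability index was obtained by summing each gate's read frequency weighted by its gate number.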

Sequence | protein stability index (doa10∆) | protein stability index (pdr5∆) | protein stability index (san1∆) | protein stability index (ubr1∆)
SGNEMPPQDAEGWFYKR [RPS19A] | 3.21 ± 0.13 | 3.29 ± 0.24 | 3.25 ± 0.13 | 3.17 ± 0.12
KMWFDVQLRYGDYDSHD [PRP8] | 1.78 ± 0.12 | 2.06 ± 0.15 |  | 3.06 ± 0.2
TAIAHSIREQVHMYHKS [SNF5] | 1.89 ± 0.044 | 1.92 ± 0.047 | 2.23 ± 0.069 | 2.12 ± 0.044
REKNSLESGKETALEFL [SMC4] | 3.47 ± 0.17 | 3.17 ± 0.11 | 3.07 ± 0.086 | 3.63 ± 0.093
KVDNDLRIELQSVYNDE [SRB8] | 3.16 ± 0.22 | 3.29 ± 0.24 | 3.26 ± 0.12 | 
LGYARFILLDRLRQFNL [SMC4] | 2.36 ± 0.061 | 1.8 ± 0.065 | 1.75 ± 0.079 | 1.63 ± 0.061
TNHVLEVFSVLGIEAAR [RPO31] | 2.21 ± 0.19 | 2.4 ± 0.11 | 2.77 ± 0.076 | 3.02 ± 0.24
NTYKRLVIGIFKRDLLR [YJL039C/NUP192] | 2.5 ± 0.082 | 1.58 ± 0.083 | 1.31 ± 0.13 | 1.59 ± 0.055
KDGEDIIFNYVPGPGTK [CSL4] | 2.56 ± 0.17 | 2.53 ± 0.11 | 2.23 ± 0.14 | 2.52 ± 0.29
FLNSNAVVVGTGNIKHE [COR1] | 1.18 ± 0.085 | 1.36 ± 0.15 | 1.06 ± 0.22 | 1.24 ± 0.12
TGNFIIPSGNVWNYTFM [PRP8] | 3.05 ± 0.095 | 2.95 ± 0.12 | 2.88 ± 0.077 | 3.18 ± 0.12
ARYNWICDPVHKHREAR [RPL15A] | 3.51 ± 0.12 | 2.81 ± 0.13 | 2.98 ± 0.12 | 3.22 ± 0.096
EKINRMIIFLKNYDATD [CSI1] | 2.52 ± 0.045 | 2.34 ± 0.044 | 2.38 ± 0.046 | 2.26 ± 0.028
YSVYLIHEIRLNTLNNV [SIR3] | 1.85 ± 0.089 | 1.99 ± 0.067 | 2.25 ± 0.1 | 2.34 ± 0.048
CNDEDKDLETLYNKIWT [ECM29] | 3.04 ± 0.081 | 3.06 ± 0.065 | 2.44 ± 0.074 | 2.88 ± 0.037
VMRNEIRITSLQGDLTF [SIR4] | 2.8 ± 0.073 | 2.35 ± 0.062 | 2.65 ± 0.081 | 2.68 ± 0.063
TTIDSLNAELESKLIPQ [SMC3] | 3.06 ± 0.12 | 3.03 ± 0.085 | 2.46 ± 0.14 | 3.1 ± 0.066
AGNIKCRNDAVNWLAYT [BRR2] | 3.13 ± 0.05 | 3.49 ± 0.039 | 3.16 ± 0.034 | 3.24 ± 0.035
TWYVGNSRGKFDDACNQ [SSN2] | 3.43 ± 0.19 | 3.14 ± 0.12 | 2.9 ± 0.11 | 3.26 ± 0.16
LDSQETPSTEESRAQNV [SWI3] | 2.41 ± 0.091 | 2.38 ± 0.12 | 3.16 ± 0.089 | 2.37 ± 0.051
ASAKSVRSGVSKSAPSK [YAR002W/NUP60] | 2.96 ± 0.078 | 2.92 ± 0.1 | 2.96 ± 0.064 | 2.99 ± 0.056
LGDMAVCFNNLVDENTD [YCS4] | 2.61 ± 0.068 | 2.8 ± 0.077 | 2.72 ± 0.076 | 2.85 ± 0.064
VFALHKYKPTPLYVMDE [SMC4] | 2.6 ± 0.081 | 2.85 ± 0.12 | 3.09 ± 0.076 | 3.07 ± 0.056
KGRKTNKYANNDFANNL [CSL4] | 3.28 ± 0.066 | 3.14 ± 0.053 | 3.13 ± 0.051 | 3.15 ± 0.095
INHKINNKITQLIAKNV [SIR3] | 1.58 ± 0.063 | 1.7 ± 0.062 | 2.22 ± 0.077 | 2.16 ± 0.064
EFTPADPNLSFESSSSL [SSN2] | 3.05 ± 0.17 | 3.09 ± 0.12 | 2.39 ± 0.16 | 2.79 ± 0.15

Sequence | protein stability index (doa10∆) | protein stability index (pdr5∆) | protein stability index (san1∆) | protein stability index (ubr1∆)
LSSETGIKLALDPNLIT [SRB4] | 2.6 ± 0.052 | 3 ± 0.054 | 2.92 ± 0.056 | 2.51 ± 0.034
DINQAKDFIENVNNRFD [BRN1] | 3.25 ± 0.12 | 3.23 ± 0.086 | 3.3 ± 0.067 | 3.08 ± 0.056
ATKEGVVLGVEKRATSP [PUP2] | 2.72 ± 0.14 | 3.14 ± 0.087 | 3.15 ± 0.083 | 3.19 ± 0.053
FQALDSEETQFKYVEDR [ITC1] | 2.88 ± 0.097 | 3.44 ± 0.12 | 3.06 ± 0.069 | 3.45 ± 0.14
WKEVLAHNPELERYVKR [RPO31] | 3.6 ± 0.11 | 3.85 ± 0.25 | 3.38 ± 0.1 | 3.45 ± 0.099
LQAQLDYLNAELGEFFV [FAS2] | 3.06 ± 0.18 |  | 2.94 ± 0.17 | 3.18 ± 0.16
YWKLWIDEPFNLDFDPR [FAS1] | 3.52 ± 0.12 | 2.84 ± 0.13 |  | 2.27 ± 0.15
RLTAKRLIEHDPVEGNL [SRP14] | 2 ± 0.066 | 2.29 ± 0.052 | 1.93 ± 0.1 | 2.16 ± 0.045
SPMINSTSSGKVSYAVK [SNM1] | 2.6 ± 0.11 | 3.11 ± 0.065 | 2.32 ± 0.097 | 2.93 ± 0.056
KDLDGWQVIITDDQGRV [SIR3] | 3.15 ± 0.093 | 3.03 ± 0.077 | 3.21 ± 0.068 | 3.35 ± 0.064
QFLYEKHYKNIPRNSPL [RPC82] | 1.92 ± 0.068 | 1.9 ± 0.056 | 1.68 ± 0.066 | 2.08 ± 0.035
ATFTSIELTSYESIATY [RPN7] | 1.75 ± 0.038 | 1.9 ± 0.04 | 1.77 ± 0.046 | 1.77 ± 0.025
QFTRFFLLVPSKQVQVS [ECM29] | 1.27 ± 0.075 | 1.18 ± 0.061 | 1.19 ± 0.11 | 1.21 ± 0.072
LNNLPYKNEDVTALLEQ [YCS4] | 2.9 ± 0.058 | 3.09 ± 0.05 | 3.05 ± 0.047 | 2.99 ± 0.056
RCKIYFFYLRISKKLQF [PCI8] | 1.29 ± 0.06 | 1.31 ± 0.046 | 1.19 ± 0.093 | 1.35 ± 0.052
GTLEYGTCFGGSKLEDM [RET1] | 3.17 ± 0.072 | 3.16 ± 0.072 | 3.36 ± 0.061 | 3.29 ± 0.065
KHGAVHMSTYLKIYKVG [RPL21B] | 1.65 ± 0.042 | 1.52 ± 0.043 | 1.9 ± 0.062 | 1.74 ± 0.054
SAIRQVFERFKTKILEV [IRR1] | 1.87 ± 0.045 | 2.03 ± 0.06 | 1.71 ± 0.07 | 2.26 ± 0.05
TEEELQAAVPDNAEDDS [BRN1] | 3.2 ± 0.094 | 3.14 ± 0.089 | 3.05 ± 0.083 | 3.02 ± 0.055
IPVGDNTVVGISGDISD [PRE4] | 2.98 ± 0.13 | 3.12 ± 0.12 | 2.85 ± 0.16 | 3.02 ± 0.12
DSADVPAFSNSNGFNNV [YMR153W/NUP53] | 3.1 ± 0.062 | 3.2 ± 0.067 | 3.22 ± 0.041 | 3.23 ± 0.048
DKDSEELDSKTRKILEI [MED4] | 2.98 ± 0.093 | 2.65 ± 0.091 | 3.11 ± 0.061 | 2.98 ± 0.064
FGSKPTGATSLFGSSNN [YGL172W/NUP49] | 3.39 ± 0.11 | 3.59 ± 0.11 | 3.54 ± 0.044 | 3.64 ± 0.1
DDIYDISLLKNRRKQSF [RPN4] | 2.91 ± 0.11 | 3.08 ± 0.12 | 3.13 ± 0.12 | 3.1 ± 0.14
TINEMMKHLGRSEGNPV [FAS2] | 2.5 ± 0.09 | 2.76 ± 0.064 | 2.53 ± 0.066 | 2.94 ± 0.072
ERLTNSLMMNGRNNGKK [RPS5] | 2.98 ± 0.099 | 3.02 ± 0.088 | 2.54 ± 0.071 | 2.62 ± 0.09

— the supplement of paper PMC9732359
